Reference: patent US20150087812A1 (Janssen / Centocor, published 2015)

Columns and labels:
[1] = target: T1, recombinant human ATX beta isoform with N-terminal purification tag (human, UniProt Q13822 49-863); assay: ELISA, Fab-His captured by anti-Fd, 5 nM biotinylated human ATX beta
Protocol: (§1) Fabs were captured on black MaxiSorp plates (Nunc, Cat. No. 437111) coated with 1 μg/ml sheep anti-human Fd (CH1) antibody (The Binding Site, Cat. No. PC075). Plates were washed and biotinylated human ATX was added to the captured Fabs at 5 nM. Incubation was carried out for 1 hour at room temperature with gentle shaking. Plates were washed, SA-HRP (Invitrogen, Cat. No. 43-4323) was added and chemiluminescent detection carried out.
(§2) Clones with binding above background were sequenced and unique clones identified. […] These clones were identified with binding signal to human ATX at least 6-fold above the background. Table 3 lists the identifier for VH and VL (Peptide ID) and the combination of both (Fab ID) sorted by the Fab ELISA binding data.

[2] = target: T1, recombinant human ATX beta isoform with …; assay: Fab-His ELISA
Protocol: as §1, §2

Binder | Fab Binding [1] | fold above background [2] [fold]
Fab F63 (VH H55, VL L57) (Fab, V domains shown, Soluble Fab-His) VH: QVQLVQSGAEVKKPGSSVKVSCKASGGTFSSYGISWVRQAPGQGLEWMGGIIPIFGTANYAQKFQGRVTITADESTSTAYMELSSLRSEDTAVYYCARRDGNYLHVDHFDYWGQGTLVTVSS VL: EIVLTQSPATLSLSPGERATLSCRASQSVASALAWYQQKPGQAPRLLIYKASNRATGIPARFSGSGSGTDFTLTISSLEPEDFAVYYCQQGGNWPWTFGQGTKVEIK | 980000 relative chemiluminescence units | ≥ 6
Fab F105 (VH H97, VL L93) (Fab, V domains shown, Soluble Fab-His) VH: QVQLVQSGAEVKKPGSSVKVSCKASGGTFSSYGISWVRQAPGQGLEWMGGIIPIFGTANYAQKFQGRVTITADESTSTAYMELSSLRSEDTAVYYCARGDDNEVIYHLDYWGQGTLVTVSS VL: EIVLTQSPGTLSLSPGERATLSCRASQSVAKSDLAWYQQKPGQAPRLLIYTASSRATGIPDRFSGSGSGTDFTLTISRLEPEDFAVYYCQQDYGYPLTFGQGTKVEIK | 970000 relative chemiluminescence units | ≥ 6
Fab F5 (VH H4, VL L4) (Fab, V domains shown, Soluble Fab-His; converted to mAb B1) VH: EVQLVQSGAEVKKPGESLKISCKGSGYSFTSYWIGWVRQMPGKGLEWMGIIYPGDSDTRYSPSFQGQVTISADKSISTAYLQWSSLKASDTAMYYCARNWSEALYVVFDYWGQGTLVTVSS VL: EIVLTQSPATLSLSPGERATLSCRASQSVANFLAWYQQKPGQAPRLLIYYASNRATGIPARFSGSGSGTDFTLTISSLEPEDFAVYYCQQYFSAPFTFGQGTKVEIK | 3.8e+06 relative chemiluminescence units | ≥ 6
Fab F126 (VH H123, VL L110) (Fab, V domains shown, Soluble Fab-His; converted to mAb B12) VH: QVQLVQSGAEVKKPGSSVKVSCKASGGTFSSYAISWVRQAPGQGLEWMGGIIPIFGTANYAQKFQGRVTITADESTSTAYMELSSLRSEDTAVYYCARDRYYFTVLDYWGQGTLVTVSS VL: EIVLTQSPGTLSLSPGERATLSCRASQSVSSSYLAWYQQKPGQAPRLLIYGASSRATGIPDRFSGSGSGTDFTLTISRLEPEDFAVYYCQQATAFPLTFGQGTKVEIK | 2.4e+06 relative chemiluminescence units | ≥ 6
Fab F68 (VH H62, VL L62) (Fab, V domains shown, Soluble Fab-His) VH: QVQLVQSGAEVKKPGSSVKVSCKASGGTFSSYGISWVRQAPGQGLEWMGGIIPIFGTTNYAQKFQGRVTITADESTSTAYMELSSLRSEDTAVYYCARDWWVTDILDYWGQGTLVTVSS VL: EIVLTQSPGTLSLSPGERATLSCRASQSVSSSYLAWYQQKPGQAPRLLIYGASSRATGIPDRFSGSGSGTDFTLTISRLEPEDFAVYYCQQSNTNPLTFGQGTKVEIK | 1.8e+06 relative chemiluminescence units | ≥ 6
Fab F78 (VH H73, VL L73) (Fab, V domains shown, Soluble Fab-His) VH: QVQLVQSGAEVKKPGSSVKVSCKASGGTFSSYAISWVRQAPGQGLEWMGGIIPIFGTANYAQKFQGRVTITADESTSTAYMELSSLRSEDTAVYYCARGTFTYDFLDYWGQGTLVTVSS VL: EIVLTQSPGTLSLSPGERATLSCRASQSVSSSYLAWYQQKPGQAPRLLIYGASSRATGIPDRFSGSGSGTDFTLTISRLEPEDFAVYYCQQSSRFPWTFGQGTKVEIK | 1.9e+06 relative chemiluminescence units | ≥ 6
Fab F93 (VH H86, VL L79) (Fab, V domains shown, Soluble Fab-His) VH: QVQLVQSGAEVKKPGSSVKVSCKASGGTFSSYAISWVRQAPGQGLEWMGGIIPIFGTANYAQKFQGRVTITADESTSTAYMELSSLRSEDTAVYYCARDTFWFTVFDYWGQGTLVTVSS VL: EIVLTQSPGTLSLSPGERATLSCRASQSVSSSYLAWYQQKPGQAPRLLIYGASSRATGIPDRFSGSGSGTDFTLTISRLEPEDFAVYYCQQSNTLPLTFGQGTKVEIK | 1.6e+06 relative chemiluminescence units | ≥ 6
Fab F118 (VH H111, VL L104) (Fab, V domains shown, Soluble Fab-His; converted to mAb B11) VH: QVQLVQSGAEVKKPGSSVKVSCKASGGTFSSYGISWVRQAPGQGLEWMGGIIPIFGTANYAQKFQGRVTITADESTSTAYMELSSLRSEDTAVYYCARDDLPLGMLDYWGQGTLVTVSS VL: EIVLTQSPGTLSLSPGERATLSCRASQSVSSSYLAWYQQKPGQAPRLLIYGASSRATGIPDRFSGSGSGTDFTLTISRLEPEDFAVYYCQQYTAFPLTFGQGTKVEIK | 2.6e+06 relative chemiluminescence units | ≥ 6
Fab F128 (VH H127, VL L111) (Fab, V domains shown, Soluble Fab-His) VH: QVQLVQSGAEVKKPGSSVKVSCKASGGTFSSYAISWVRQAPGQGLEWMGGIIPIFGNANYAQKFQGRVTITADESTSTAYMELSSLRSEDTAVYYCARGFVNFSRLDYWGQGTLVTVSS VL: EIVLTQSPGTLSLSPGERATLSCRASQSVSSSYLAWYQQKPGQAPRLLIYGASSRATGIPDRFSGSGSGTDFTLTISRLEPEDFAVYYCQQDSAFPWTFGQGTKVEIK | 1.8e+06 relative chemiluminescence units | ≥ 6
Fab F130 (VH H129, VL L113) (Fab, V domains shown, Soluble Fab-His) VH: QVQLVQSGAEVKKPGSSVKVSCKASGGTFSSYAISWVRQAPGQGLEWMGGIIPIFGTANYAQKFQGRVTITADESTSTAYMELSSLRSEDTAVYYCARDHGYAYYSAFDYWGQGTLVTVSS VL: EIVLTQSPGTLSLSPGERATLSCRASQSVSSSYLAWYQQKPGQAPRLLIYGASSRATGIPDRFSGSGSGTDFTLTISRLEPEDFAVYYCQQSSRDPWTFGQGTKVEIK | 2.2e+06 relative chemiluminescence units | ≥ 6
Fab F69 (VH H63, VL L63) (Fab, V domains shown, Soluble Fab-His) VH: QVQLVQSGAEVKKPGSSVKVSCKASGGTFSSYAISWVRQAPGQGLEWMGGIIPIFGTANYAQKFQGRVTITADESTSTAYMELSSLRSEDTAVYYCARDDDVNSLASYPLDYWGQGTLVTVSS VL: EIVLTQSPATLSLSPGERATLSCRASQSVSKALAWYQQKPGQAPRLLIYYASNRATGIPARFSGSGSGTDFTLTISSLEPEDFAVYYCQQYKNAPRTFGQGTKVEIK | 2e+06 relative chemiluminescence units | ≥ 6
Fab F74 (VH H68, VL L68) (Fab, V domains shown, Soluble Fab-His) VH: QVQLVQSGAEVKKPGSSVKVSCKASGGTFSSYAISWVRQAPGQGLEWMGGIIPIFGTANYAQKFQGRVTITADESTSTAYMELSSLRSEDTAVYYCARDGDVNSVYSSGLDYWGQGTLVTVSS VL: EIVLTQSPATLSLSPGERATLSCRASQSVNKFLAWYQQKPGQAPRLLIYFASNRATGIPARFSGSGSGTDFTLTISSLEPEDFAVYYCQQYNHAPFTFGQGTKVEIK | 1.7e+06 relative chemiluminescence units | ≥ 6
Fab F135 (VH H138, VL L118) (Fab, V domains shown, Soluble Fab-His) VH: QVQLVQSGAEVKKPGSSVKVSCKASGGTFSSYAISWVRQAPGQGLEWMGGIIPIFGTANYAQKFQGRVTITADESTSTAYMELSSLRSEDTAVYYCARDFLSQFSWLDYWGQGTLVTVSS VL: EIVLTQSPGTLSLSPGERATLSCRASQSVSSSYLAWYQQKPGQAPRLLIYGASSRATGIPDRFSGSGSGTDFTLTISRLEPEDFAVYYCQQSSGFPLTFGQGTKVEIK | 2e+06 relative chemiluminescence units | ≥ 6
Fab F122 (VH H119, VL L108) (Fab, V domains shown, Soluble Fab-His) VH: QVQLVQSGAEVKKPGSSVKVSCKASGGTFSSYAISWVRQAPGQGLEWMGGIIPIFGTANYAQKFQGRVTITADESTSTAYMELSSLRSEDTAVYYCARDGVTTYDYFDYWGQGTLVTVSS VL: EIVLTQSPGTLSLSPGERATLSCRASQSVSSSYLAWYQQKPGQAPRLLIYGASSRATGIPDRFSGSGSGTDFTLTISRLEPEDFAVYYCQQSSRYPWTFGQGTKVEIK | 1.9e+06 relative chemiluminescence units | ≥ 6
Fab F100 (VH H93, VL PH9L1) (Fab, V domains shown, Soluble Fab-His) VH: QVQLVQSGAEVKKPGSSVKVSCKASGGTFSSYAISWVRQAPGQGLEWMGGIIPIFGNTNYAQKFQGRVTITADESTSTAYMELSSLRSEDTAVYYCARHYLPDATLDYWGQGTLVTVSS VL: not shown | 1.9e+06 relative chemiluminescence units | ≥ 6
Fab F116 (VH H108, VL L100) (Fab, V domains shown, Soluble Fab-His) VH: QVQLVQSGAEVKKPGSSVKVSCKASGGTFSSYAISWVRQAPGQGLEWMGGIIPIFGTANYAQKFQGRVTITADESTSTAYMELSSLRSEDTAVYYCARSDLNNVSTVLDYWGQGTLVTVSS VL: DIQMTQSPSSLSASVGDRVTITCRASQSIGKVLNWYQQKPGKAPKLLIYGASSLQSGVPSRFSGSGSGTDFTLTISSLQPEDFATYYCQQPISTPLTFGQGTKVEIK | 1.9e+06 relative chemiluminescence units | ≥ 6
Fab F117 (VH H110, VL L103) (Fab, V domains shown, Soluble Fab-His) VH: QVQLVQSGAEVKKPGSSVKVSCKASGGTFSSYAISWVRQAPGQGLEWMGGIIPIFGTANYAQKFQGRVTITADESTSTAYMELSSLRSEDTAVYYCARADANQLSGYLDYWGQGTLVTVSS VL: DIQMTQSPSSLSASVGDRVTITCRASQSIGRSLNWYQQKPGKAPKLLIYAASSLQSGVPSRFSGSGSGTDFTLTISSLQPEDFATYYCQQPFDYPFTFGQGTKVEIK | 1.8e+06 relative chemiluminescence units | ≥ 6
Fab F67 (VH H60, VL L61) (Fab, V domains shown, Soluble Fab-His; converted to mAb B10) VH: QVQLVQSGAEVKKPGSSVKVSCKASGGTFSSYAISWVRQAPGQGLEWMGGIIPIFGTANYAQKFQGRVTITADESTSTAYMELSSLRSEDTAVYYCARIARYARGYMHTFDYWGQGTLVTVSS VL: DIQMTQSPSSLSASVGDRVTITCRASQSISSYLNWYQQKPGKAPKLLIYAASSLQSGVPSRFSGSGSGTDFTLTISSLQPEDFATYYCQQHLSIPITFGQGTKVEIK | 8.8e+06 relative chemiluminescence units | ≥ 6
Fab F90 (VH H83, VL L83) (Fab, V domains shown, Soluble Fab-His) VH: QVQLVQSGAEVKKPGSSVKVSCKASGGTFSSYAISWVRQAPGQGLEWMGGIIPIFGTANYAQKFQGRVTITADESTSTAYMELSSLRSEDTAVYYCARGEANEVYPGLDYWGQGTLVTVSS VL: EIVLTQSPGTLSLSPGERATLSCRASQSVSKSALAWYQQKPGQAPRLLIYNASSRATGIPDRFSGSGSGTDFTLTISRLEPEDFAVYYCQQSNKDPLTFGQGTKVEIK | 1.7e+06 relative chemiluminescence units | ≥ 6
Fab F72 (VH H65, VL PH9L1) (Fab, V domains shown, Soluble Fab-His) VH: QVQLVQSGAEVKKPGSSVKVSCKASGGTFSSYAISWVRQAPGQGLEWMGGIIPIFGTANYAQKFQGRVTITADESTSTAYMELSSLRSEDTAVYYCARGDANSIYPLFDYWGQGTLVTVSS VL: not shown | 1.6e+06 relative chemiluminescence units | ≥ 6
